Series [1] has as its target T1, threonine deaminase (Ilv1), wild-type (Saccharomyces cerevisiae, UniProt P00927).
T1 sequence (P00927 46-576): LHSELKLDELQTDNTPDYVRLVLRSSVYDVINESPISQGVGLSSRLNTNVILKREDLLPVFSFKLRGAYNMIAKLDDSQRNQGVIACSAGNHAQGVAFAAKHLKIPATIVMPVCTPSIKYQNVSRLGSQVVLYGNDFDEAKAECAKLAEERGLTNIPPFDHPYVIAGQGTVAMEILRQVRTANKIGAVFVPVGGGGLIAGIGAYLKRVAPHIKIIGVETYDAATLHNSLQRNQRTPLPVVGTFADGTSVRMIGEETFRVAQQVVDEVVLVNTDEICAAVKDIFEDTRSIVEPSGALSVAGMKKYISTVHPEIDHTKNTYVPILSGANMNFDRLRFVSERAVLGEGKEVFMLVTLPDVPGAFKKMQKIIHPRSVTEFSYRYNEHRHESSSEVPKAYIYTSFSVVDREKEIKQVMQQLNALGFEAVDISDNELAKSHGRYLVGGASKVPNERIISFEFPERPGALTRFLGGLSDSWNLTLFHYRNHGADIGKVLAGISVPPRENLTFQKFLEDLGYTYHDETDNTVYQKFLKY
Nature of the series: biochemical. The following applies: read-out: GDH-coupled TD activity assay with purified Ilv1; 1.8-fold activation at 5 mM Va.

For series [2], the target named is T1, threonine deaminase (Ilv1), wild-type. The series is described as follows: GDH-coupled NADH oxidation assay of TD activity with purified recombinant Ilv1. The class given is biochemical.
Substrate in series [3]: C[C@@H](O)[C@H](N)C(=O)O
The series is described as follows: purified protein. In kind it is biochemical, Saccharomyces cerevisiae. To be noted: pyridoxal-5'-phosphate.

In general, IC50 refers to the concentration needed to halve the response being measured. One may read the kcat as the number of substrate molecules converted per active site and unit of time at saturation. By kcat/Km is commonly meant the second-order rate constant that governs catalysis at low substrate concentration.

Residue numbers refer to the chain shown, from its start. Names may count otherwise.

Consider `CC(C)[C@H](N)C(=O)O` [valine], for which the fold induction at 5000 µM in series [1] was found to be 1.8.
Regarding `CC[C@H](C)[C@H](N)C(=O)O` [isoleucine], the IC50 in series [2] was determined as 270 ± 9 µM.

B1: threonine deaminase (Ilv1), wild-type (Saccharomyces cerevisiae S288C) (protein)
chain: T1 sequence (P00927 46-576)
notes: recombinant Ilv1 lacking the N-terminal 45 amino acid residues (mitochondrial localization signal), expressed in E. coli BL21(DE3)
As for B1, in series [3], the K0.5 stood at 40 ± 2.2 mM, the turnover number (kcat) turned out to be 75 ± 4.1 s⁻¹ and the kcat/Km is 1870 M⁻¹ s⁻¹.

B2: threonine deaminase (Ilv1), H480Y variant (Saccharomyces cerevisiae S288C; H480Y) (protein)
chain: T1 sequence (P00927 46-576) with H435Y
notes: as for B1
Consider B2, for which, in series [3], the K0.5 is on record as 42 ± 2.4 mM, the kcat turned out to be 75 ± 3.6 s⁻¹ and the kcat/Km stood at 1780 M⁻¹ s⁻¹.

The values above are taken from publication PMC8904041, “High-Level Production of Isoleucine and Fusel Alcohol by Expression of the Feedback Inhibition-Insensitive Threonine Deaminase in Saccharomyces cerevisiae” (Applied and Environmental Microbiology, 2022).
